Results reported in article PMC5016662.

How the values were obtained:
bovine trypsin (bovine) [1] = target: bovine trypsin (bovine)
[2] = target: human cathepsin K (human) (UniProt P43235); experiment: enzyme inhibition kinetics (fluorogenic substrate, Morrison tight-binding fit); inhibitor serially diluted (20 to 0.1 nM) against each cysteine protease; 50 mM citrate phosphate buffer pH 5.5, 2 mM DTT, 0.01% Brij L23; 37 °C; substrate at its Km; Ki worked out from the apparent Ki
[3] = target: human cathepsin L (human); experiment: as above
[4] = target: recombinant F. hepatica cathepsin L2 (Fasciola hepatica); experiment: as above
[5] = target: recombinant F. hepatica cathepsin L1 (Fasciola hepatica); experiment: as above
bovine trypsin (bovine) [6] = experiment: enzyme inhibition kinetics (fluorogenic substrate, Morrison tight-binding fit); inhibitor serially diluted against trypsin (42 nM); 100 mM sodium phosphate buffer pH 7.6, 1 mM HCl, 20 mM Ca, 0.01% Brij L23; substrate Z-Leu-Arg-NHMec
[7] = target: human cathepsin K (human) (UniProt P43235)
[8] = target: human cathepsin L (human)
[9] = target: recombinant F. hepatica cathepsin L2 (Fasciola hepatica)
[10] = target: recombinant F. hepatica cathepsin L1 (Fasciola hepatica)

Sequence of human cathepsin K (human) (P43235 115-329): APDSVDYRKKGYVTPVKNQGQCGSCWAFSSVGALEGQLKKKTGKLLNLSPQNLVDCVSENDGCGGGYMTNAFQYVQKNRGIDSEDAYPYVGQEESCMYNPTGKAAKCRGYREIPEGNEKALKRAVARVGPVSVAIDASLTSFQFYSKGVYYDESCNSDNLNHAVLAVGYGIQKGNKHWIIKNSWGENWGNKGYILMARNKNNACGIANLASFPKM

“recombinant FhKT1Leu15/Arg15 variant (natural protein)” gave a reduction of trypsin activity (fluorogenic substrate) by 300 nM rFhKT1Leu15/Arg15 (bovine trypsin (bovine) [1]) of 88.9%, a Ki [2] of 10 nM and a Ki [3] of 3 nM. The Ki [4] was 27 nM, the Ki [5] was 0.7 nM and the Ki (bovine trypsin (bovine) [6]) was 1.5 nM.
“recombinant Fasciola hepatica Kunitz-type protease inhibitor FhKT1 (natural protein)” gave a Ki [2] of 5 nM, a Ki [3] of 1.6 nM and a Ki [4] of 10 nM. It also gave a Ki [5] of 0.4 nM, a reduction of protease activity (fluorogenic substrate) by 300 nM rFhKT1 [7] of 99.5% and a reduction of protease activity (fluorogenic substrate) by 300 nM rFhKT1 [8] of 96.8%. For the same substance, the reduction of protease activity (fluorogenic substrate) by 300 nM rFhKT1 [9] was 90.3% and the reduction of protease activity (fluorogenic substrate) by 300 nM rFhKT1 [10] was 98.9%.
